Measured values reported in the supplement of paper PMC10567573.
± gives the standard deviation.

Assay: protein stability index of a GFP-peptide fusion (GPS, HEK-293T) (PSI 1-6); higher = more stable
[1] = treatment: DMSO, c terminus: native
[2] = treatment: MLN4924 1 uM, 8 h, c terminus: native
[3] = treatment: DMSO, c terminus: a fixed tail appended
[4] = treatment: MLN4924 1 uM, 8 h, c terminus: a fixed tail appended
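Also: 24-mer peptide tiles fused after GFP, lentivirally expressed, FACS-sorted into six equal bins by GFP/DsRed ratio, decoded by Illumina sequencing, PSI is the read-weighted mean bin number.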

Sequence | protein stability index [1] | protein stability index [2] | protein stability index [3] | protein stability index [4]
MLEDGPHNANRGQRLLAFSRGRA [CCDC70] | 2.99 ± 0.63 | 2.77 ± 0.41 | – | –
MLHHHCRRNPELQEELQIQAAVAA [ASB7] | – | – | 3.47 ± 0.29 | 3.59 ± 0.26
MNGEECAEDLRMLDASGEKMNGSH [IKZF1] | – | – | 5.15 ± 0.39 | 5.31 ± 0.18
MNGHQNGLDSPPLYPSAPILGGSG [ESRRG] | – | – | 3.91 ± 0.25 | 3.93 ± 0.3
MQPFNYVTLQCLAARALDKNKIPY [FEM1A] | – | – | 3.25 ± 0.38 | 2.97 ± 0.31
MQRPYDSRTCIGSSHSRGPLSWAP | – | – | 3.1 ± 0.31 | 2.94 ± 0.05
MTEPWLALGTSWTLPLQDRELGPE [CABP4] | – | – | 3.54 ± 0.39 | 4.16 ± 0.2
MTKAGSKGGNLRDKLDGNELDLSL [LRRC59] | – | – | 4.63 ± 0.15 | 4.63 ± 0.081
MTMIVSLAAVAWVGQQVHNLLLTY [ARL6IP1] | – | – | 3.31 ± 0.37 | 3.25 ± 0.32
MVFSGLCPLLLGSVMAIERCIGVT [PTGFR] | – | – | 3.4 ± 0.078 | 3.37 ± 0.41
MVGEEKMSLRNRLSKSRENPEEDE [SOAT1] | – | – | 5.52 ± 0.16 | 5.44 ± 0.21
MWVRFRAFEAARDLDACALVRGHR [ZSWIM9] | – | – | 2.17 ± 0.25 | 2.06 ± 0.22
NDYIVPRHCPELAEMSRVSIRILD [HNF4A] | – | – | 3.08 ± 0.19 | 3.29 ± 0.24
NEFLCTLQKKLDNLQCLYCEKTFR [ZNF277] | – | – | 2 ± 0.4 | 2.38 ± 0.32
NEFLEAFRLVEKSCPEGDASECPQ [PPEF2] | – | – | 5 ± 0.75 | 5.17 ± 0.32
NEKITMQNLNDRLASYLEKVRALE [KRT13] | – | – | 2.86 ± 0.4 | 3 ± 0.32
NESSLASTLKTLLFFTALMITVPI [VMA21] | – | – | 2.92 ± 0.19 | 3.07 ± 0.2
NGDDMFVTFAAMQAQQGRSSLVWL [MCOLN1] | – | – | 3.18 ± 0.54 | 2.83 ± 0.48
NIYENGDVCISILHPPVDDPQSGE [UBE2R2] | – | – | 4.37 ± 0.1 | 4.55 ± 0.087
NKDGIGEICLWGRHIFMGYLESET [ACSBG2] | – | – | 2.29 ± 0.46 | 2.02 ± 0.31
NKKHIHSRSTLECAYRTHLVAGIG [SMG5] | – | – | 2.37 ± 0.29 | 2.39 ± 0.19
NLAGFILGCQGAQFVSSVPRCDLV [FAM189A2] | – | – | 2.66 ± 0.59 | 2.58 ± 0.57

Sequence | protein stability index [1] | protein stability index [2] | protein stability index [3] | protein stability index [4]
NLDANLAFASFTSGVVRIWDLRDQ [TLE6] | – | – | 2.3 ± 0.28 | 2.36 ± 0.33
NLPSGGKGFKLRRQPSEPKRSCC [RAB22A] | 3.89 ± 0.34 | 4 ± 0.35 | – | –
NMDPKAAEEEEEEEEEVDLACTPT [CCND1] | – | – | 5.6 ± 0.27 | 5.64 ± 0.13
NNQDFIPFTKKRVGVDRAFPLKPM [ZC2HC1C] | – | – | 2.85 ± 0.39 | 3.26 ± 0.45
NNWYYISPRLTFQCLEDLVNHYSE [SLA] | – | – | 2.44 ± 0.35 | 2.23 ± 0.38
NPLICPVCTKYNLRITSGVVVCQC [RPAIN] | – | – | 3.91 ± 0.32 | 4.16 ± 0.25
NPNGGSFEEVLSSTAHASAQSLAG [TPD52L1] | – | – | 4.76 ± 0.12 | 4.9 ± 0.11
NPVYYGPSDFFIGAVIEVFGHRFI [EFHC1] | – | – | 3.04 ± 0.7 | 2.44 ± 0.79
NQGFLKVERYHNLCQKQVKAQLPR [FBXO28] | – | – | 2.76 ± 0.47 | 2.64 ± 0.45
NQGTQITVEDLFYNIATRRKALKN [MLH1] | – | – | 3.29 ± 0.32 | 3.37 ± 0.48
NQLSQAELDELASKAPVLTYGQPK [EFHC1] | – | – | 4.78 ± 0.11 | 4.79 ± 0.072
NRDEHSSRGYRNHRSSRETRDYAP [RBMY1A1] | – | – | 4.74 ± 0.072 | 4.63 ± 0.095
NRELWKEFSSVGTEMIITKAGRRM [TBX6] | – | – | 2.88 ± 0.27 | 3.21 ± 0.4
NSEADQLGKIFDLIGLPPEDDWPR [CDK4] | – | – | 3.7 ± 0.35 | 3.92 ± 0.23
NSMAPHPARDYVVLRTWRTNLPKG [DLC1] | – | – | 2.48 ± 0.59 | 2.64 ± 0.21
NSSPRVMQRKQSLGKPDQKDLNEN [DLC1] | – | – | 5.09 ± 0.18 | 4.88 ± 0.28
NVLHGYPKDIYSSFGFPRTVKHID [MMP1] | – | – | 2.63 ± 0.098 | 2.74 ± 0.24
NVVTCAAGILSNLTCNNYKNKMMV [CTNNB1] | – | – | 2.69 ± 0.41 | 2.46 ± 0.24
NVYPEMRVYNNTLTYGEVRNSKAS [GALNT9] | – | – | 3.94 ± 0.22 | 4.14 ± 0.3
PAATWNLEEKRLTWRLPDVSEAGG [FCHO1] | – | – | 4.49 ± 0.24 | 4.58 ± 0.25
PAFRFLTKMWHPNIYETGDVCISI [CDC34] | – | – | 3.2 ± 0.42 | 3.04 ± 0.59
PAHRFVLAAGSAVFDAMFNGGMAT [BTBD1] | – | – | 2.49 ± 0.85 | 2.24 ± 0.55

Sequence | protein stability index [1] | protein stability index [2] | protein stability index [3] | protein stability index [4]
PANCPACREPSPKMDFKTNILLKN [TRIM43] | – | – | 3.38 ± 0.25 | 3.52 ± 0.21
PAPALAPDQLPQNNTLVALPIVAI [FBXO28] | – | – | 2.91 ± 0.23 | 2.68 ± 0.33
PAQLSCLPYLEHVGHNHTYNMAPS [NFE2L1] | – | – | 2.91 ± 0.25 | 2.96 ± 0.28
PAQPGADSSFPPALAEGYRYPELD [TBX6] | – | – | 5.14 ± 0.18 | 5.01 ± 0.36
PAVATLCDLFDREIVVTISWAKSI [ESRRA] | – | – | 2.65 ± 0.56 | 3.36 ± 0.85
PCIPPGFRNLVADRVLNYTSWSQH [SPAG8] | – | – | 2.14 ± 0.15 | 2.37 ± 0.27
PCPEDASTPRPPEASSSPPEGSQD [TLE6] | – | – | 5.52 ± 0.16 | 5.53 ± 0.17
PDALSDVGEVPYWVLEPVLEGWRP [ELOA2] | – | – | 3.07 ± 0.26 | 3.13 ± 0.54
PDFCHKFLPGYVGGIQEGAVTPAG [DHCR7] | – | – | 3.57 ± 0.32 | 3.6 ± 0.11
PEARYLFLLDVIPVDGARYRWQGR [TBX6] | – | – | 2.08 ± 0.27 | 2.09 ± 0.31
PEEFSLLKLQTKDGHRPEWTFYPR [SPATS1] | – | – | 2.76 ± 0.32 | 2.87 ± 0.49
PEGSQDRNTSWGVVQEPPGRASRF [TLE6] | – | – | 4.83 ± 0.23 | 4.57 ± 0.14
PEPEDEPGGPGAMTESLEASEFLE [RSPH3] | – | – | 5.7 ± 0.12 | 5.48 ± 0.2
PESPGGTTTLEGSPSVPCIFCEEH [ZNF277] | – | – | 4.82 ± 0.3 | 4.82 ± 0.16
PGAFGTILTFLRAGKLRLLREMCA [KCNG1] | – | – | 2.84 ± 0.33 | 2.8 ± 0.062
PGGGGSPGACPALGTKSCSSSCAV [RTN3] | – | – | 3.73 ± 0.42 | 4.07 ± 0.22
PGQEKGSALEGRADTTTGSAAGPP [EHMT1] | – | – | 5.39 ± 0.22 | 5.48 ± 0.17
PGRSALIVAVLCYINLLNYMDRFT [SPNS1] | – | – | 2.81 ± 0.88 | 3.44 ± 0.31
PHEDHVFLVANFSQIETLTSVFQK [MATN2] | – | – | 2.25 ± 0.24 | 2.35 ± 0.16
PHGQYGGHHQGMPGYLPGAMPPYG [ZNF207] | – | – | 2.93 ± 0.33 | 3.09 ± 0.41
PKARKQGVSPADMYRWKLSSHEPC [ADAMTSL2] | – | – | 2.94 ± 0.27 | 3.25 ± 0.14
